According to patent US20090300802A1 (WASHINGTON STATE UNIVERSITY RESEARCH FOUNDATION, published 2009):
Values belong to the molecule of their own block, whether it stands above or below them. No end group written: not given here. *: point of attachment. APDP = N-(4-[p-azidosalicylamido]butyl)-3'-(2'-pyridyldithio)propionamide, photoaffinity cross-linker coupled via disulfide to Cys, [N-]=[N+]=Nc1ccc(C(=O)NCCCCNC(=O)CCS*)c(O)c1; 125I = [125I]*

How the values were obtained:
[1] = target: OsPEPR1 (rice); test: cell-based or functional assay
[2] = target: T1, AtPEPR1 (Arabidopsis thaliana, UniProt Q9SSL9 29-1123, glycosylated (about 180 kD, about 150 kD after PNGase F)); test: cell-based or functional assay
T1 sequence: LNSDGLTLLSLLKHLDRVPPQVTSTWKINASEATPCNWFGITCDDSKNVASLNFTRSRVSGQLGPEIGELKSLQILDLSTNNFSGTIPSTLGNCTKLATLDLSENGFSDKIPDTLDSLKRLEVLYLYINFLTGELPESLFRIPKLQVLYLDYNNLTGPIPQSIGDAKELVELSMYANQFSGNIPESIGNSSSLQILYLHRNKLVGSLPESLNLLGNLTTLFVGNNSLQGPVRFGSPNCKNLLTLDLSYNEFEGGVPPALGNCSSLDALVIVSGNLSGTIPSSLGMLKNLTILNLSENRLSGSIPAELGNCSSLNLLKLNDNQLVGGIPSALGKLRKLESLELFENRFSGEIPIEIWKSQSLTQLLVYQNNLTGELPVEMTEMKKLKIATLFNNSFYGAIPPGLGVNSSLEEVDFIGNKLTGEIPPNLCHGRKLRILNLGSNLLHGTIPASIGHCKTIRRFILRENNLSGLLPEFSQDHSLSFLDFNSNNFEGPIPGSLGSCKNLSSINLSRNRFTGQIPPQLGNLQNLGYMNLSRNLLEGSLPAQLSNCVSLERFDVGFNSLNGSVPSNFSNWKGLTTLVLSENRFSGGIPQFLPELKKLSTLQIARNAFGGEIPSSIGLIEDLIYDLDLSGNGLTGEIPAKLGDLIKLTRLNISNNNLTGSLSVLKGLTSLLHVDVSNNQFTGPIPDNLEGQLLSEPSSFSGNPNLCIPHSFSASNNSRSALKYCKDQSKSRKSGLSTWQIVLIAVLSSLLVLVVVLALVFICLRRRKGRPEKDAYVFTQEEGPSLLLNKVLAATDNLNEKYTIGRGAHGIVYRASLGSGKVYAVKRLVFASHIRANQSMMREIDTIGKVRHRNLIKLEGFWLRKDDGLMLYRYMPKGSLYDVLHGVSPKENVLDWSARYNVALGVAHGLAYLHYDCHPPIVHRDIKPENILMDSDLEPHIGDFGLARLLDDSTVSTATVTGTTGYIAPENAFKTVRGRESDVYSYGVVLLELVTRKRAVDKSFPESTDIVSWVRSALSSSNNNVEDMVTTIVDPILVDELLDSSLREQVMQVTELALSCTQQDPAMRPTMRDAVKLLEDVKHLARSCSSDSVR

[3] = target: T2, AtPEPR2 (Arabidopsis thaliana, UniProt Q9FZ59 27-1088); test: sub-heading of Example 9, supported by alkalinization and photoaffinity labeling of transgenic tobacco cells
T2 construct: Coding region expressed under the CaMV 35S promoter in tobacco suspension-cultured cells; also called second AtPep1 receptor; At1g17750
T2 sequence: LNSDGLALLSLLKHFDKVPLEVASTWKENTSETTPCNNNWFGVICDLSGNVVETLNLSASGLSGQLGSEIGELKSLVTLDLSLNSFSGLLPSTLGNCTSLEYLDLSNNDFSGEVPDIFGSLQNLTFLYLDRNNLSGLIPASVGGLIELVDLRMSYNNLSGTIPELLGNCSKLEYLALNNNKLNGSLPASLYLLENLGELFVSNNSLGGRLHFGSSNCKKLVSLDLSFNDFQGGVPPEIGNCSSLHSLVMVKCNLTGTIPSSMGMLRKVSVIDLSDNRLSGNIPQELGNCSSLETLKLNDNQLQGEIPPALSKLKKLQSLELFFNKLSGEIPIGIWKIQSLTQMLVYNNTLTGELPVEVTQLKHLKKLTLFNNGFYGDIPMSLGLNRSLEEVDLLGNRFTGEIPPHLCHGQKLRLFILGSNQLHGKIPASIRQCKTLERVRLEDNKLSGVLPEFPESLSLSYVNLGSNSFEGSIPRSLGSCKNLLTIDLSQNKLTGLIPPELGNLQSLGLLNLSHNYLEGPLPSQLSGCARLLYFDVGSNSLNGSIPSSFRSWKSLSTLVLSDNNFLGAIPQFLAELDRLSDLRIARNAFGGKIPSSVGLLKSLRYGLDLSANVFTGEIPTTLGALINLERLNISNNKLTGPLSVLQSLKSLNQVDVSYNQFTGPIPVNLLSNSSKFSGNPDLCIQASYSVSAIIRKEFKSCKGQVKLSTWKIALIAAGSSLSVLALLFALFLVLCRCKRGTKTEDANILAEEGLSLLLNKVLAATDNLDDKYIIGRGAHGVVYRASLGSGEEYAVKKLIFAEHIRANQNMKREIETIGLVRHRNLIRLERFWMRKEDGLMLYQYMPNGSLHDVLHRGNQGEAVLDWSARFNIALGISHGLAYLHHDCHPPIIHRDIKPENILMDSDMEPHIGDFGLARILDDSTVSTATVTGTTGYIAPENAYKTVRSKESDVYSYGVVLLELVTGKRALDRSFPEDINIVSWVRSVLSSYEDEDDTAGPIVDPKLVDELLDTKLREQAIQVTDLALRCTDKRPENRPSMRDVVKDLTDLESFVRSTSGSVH
Protocol: To clarify whether AtPEPR2 binds to AtPep1, the AtPEPR2 coding region was fused to the CaMV 35S promoter and introduced into tobacco suspension-cultured cells by Agrobacterium. Tobacco cells expressing AtPEPR1 and GUS genes were also created as positive and negative controls, respectively. […] These transgenic lines were analyzed for alkalinizing activity as previously described (Pearce et al., Proc. Natl. Acad. Sci. USA 98, 12843-12847, 2001). […] The level of response to AtPep1 for the AtPEPR2-expressing cells was similar to that of AtPEPR1-expressing cells and to Arabidopsis cells (Yamaguchi et al., Proc. Natl. Acad. Sci. USA 103: 10104-10109, 2006, Huffaker et al., Proc. Natl. Acad. Sci. USA 103: 10098-10103, 2006), with a maximal change of 1-1.2 pH units and a half-maximal peptide activity of 0.25 nM.
(§1) For final confirmation, a photoaffinity-labeling experiment was performed using the transgenic tobacco cells. […] After separation of extracted proteins by SDS-PAGE, the labeled proteins were detected on X-ray film. […] Since no specific labeling was detected in wild type tobacco and GUS expressing cells, the proteins labeled specifically by ¹²⁵I₁-azido-Cys-AtPep1 in AtPEPR1 and AtPEPR2 expressing cells were products from the AtPEPR1 and AtPEPR2 genes.

[4] = target: T1, AtPEPR1; test: saturation binding of radiolabeled peptide to Arabidopsis suspension cultured cells, Scatchard analysis
Description: An analog of AtPep1 was synthesized with a Tyr residue attached to its N-terminus and radiolabeled with ¹²⁵I to quantify binding. The Tyr analog and mono- and di-iodo-Tyr-AtPep1 analogs were separated by HPLC, and the concentration-dependent activities of AtPep1 and these analogs where tested in the alkalinization assay. […] The mono-iodinated Tyr-AtPep1 comprised about 95% of the iodinated proteins and was employed for binding studies.

[5] = target: T2, AtPEPR2; test: photoaffinity labeling (0.25 nM) of transgenic tobacco cells expressing AtPEPR2, SDS-PAGE and X-ray film
Protocol: (§2) This wash was repeated twice. The cells were resuspended in 1 mL MS medium and irradiated with UV-B for 10 min on ice to photoactivate the azido group to effect the crosslinking. The cells were washed with 1 mL MS medium, centrifuged as above, and resuspended in 400 μL of 5% SDS. The cells were disrupted by boiling for 30 min, and the insoluble debris was removed by centrifugation at 10,000×g. […] After centrifugation at 10,000×g, the pellet was recovered and dissolved in 100 μL of Laemmli sample buffer containing 5% SDS, boiled for 10 min, and separated using 8% SDS-PAGE. The gels were dried and exposed to X-ray film for 50 hr to visualize labeled proteins. In competition assays, unlabeled AtPep1 and suramin were added to the cells and incubated for 10 min before adding ¹²⁵I-azido-Cys-AtPep1. The same procedures described above were employed to detect labeled proteins.
as §1

[6] = target: T1, AtPEPR1; test: photoaffinity labeling (0.25 nM) of transgenic tobacco cells expressing AtPEPR1, SDS-PAGE and X-ray film
Protocol: as §2, §1

half-maximal activity, alkalinization of tobacco cells expressing OsPEPR1 [1]: 0.25 nM
medium pH increase, tobacco cells expressing OsPEPR1 [1]: 1.2 pH unit
Molecule: ZmPep4a (peptide)

half-maximal activity, alkalinization of tobacco cells expressing AtPEPR1 [2]: 0.25 nM
maximal change of medium pH, tobacco cells expressing AtPEPR1 [2]: 1.2 pH units
binding result [3]: binds
B1: AtPep1 (peptide)
peptide: ATKVKAKQRGKEKVSSGRPGQHN
notes: 23 amino acid peptide, chemically synthesized, not post-translationally modified; also called Arabidopsis Peptide 1; native AtPep1

change in medium pH of transgenic tobacco cells expressing AtPEPR1 at 2.5 nM peptide [2]: ≤ 0.6 pH units
half-maximal activity, alkalinization of tobacco cells expressing AtPEPR1 [2]: 0.25 nM
maximal change of medium pH, tobacco cells expressing AtPEPR1 [2]: 1.2 pH units
B2: AtPep6 (peptide)
peptide: ITAVLRRRPRPPPYSSGRPGQNN

binding result [5]: binds
binding result [6]: binds
B6: 125I-azido-Cys-AtPep1 (peptide)
peptide: C(APDP)ATKVKAKQRGKEKVSSGRPGQHN
modifications: also: mono-iodinated with 125I, site not given here
notes: also called 125I1-azido-Cys-AtPep1

The remaining lines, values behind:

Molecule: OsPep3a (peptide)
half-maximal activity, alkalinization of tobacco cells expressing OsPEPR1 [1]: 0.25 nM
medium pH increase, tobacco cells expressing OsPEPR1 [1]: 1.2 pH unit

B3: AtPep5 (peptide)
peptide: GLPGKKNVLKKSRESSGKPGGTN
change in medium pH of transgenic tobacco cells expressing AtPEPR1 at 2.5 nM peptide [2]: ≤ 0.6 pH units
half-maximal activity, alkalinization of tobacco cells expressing AtPEPR1 [2]: 0.25 nM
maximal change of medium pH, tobacco cells expressing AtPEPR1 [2]: 1.2 pH units

B4: AtPep2 (peptide)
peptide: SLNVMRKGIRKQPVSSGKRGGVN
change in medium pH of transgenic tobacco cells expressing AtPEPR1 at 2.5 nM peptide [2]: ≤ 0.6 pH units
half-maximal activity, alkalinization of tobacco cells expressing AtPEPR1 [2]: 0.25 nM
maximal change of medium pH, tobacco cells expressing AtPEPR1 [2]: 1.2 pH units

B5: 125I1-Tyr-AtPep1 (peptide)
peptide: Y(125I)ATKVKAKQRGKEKVSSGRPGQHN
notes: also called mono-iodinated Tyr-AtPep1
Kd [4]: 0.25 nM

B7: AtPep7 (peptide)
peptide: VSGNVAARKGKQQTSSGKGGGTN
half-maximal activity, alkalinization of tobacco cells expressing AtPEPR1 [2]: 2.5 nM

B8: AtPep4 (peptide)
peptide: EIKARGKNKTKPTPSSGKGGKHN
half-maximal activity, alkalinization of tobacco cells expressing AtPEPR1 [2]: 2.5 nM
